In patent US20140294758A1 (published 2014):

B1: 14.18-IL2-L containing SEQ ID NO: 5 (other)
light: EIVMTQSPATLSVSPGERATLSCRSSQSLVHRNGNTYLHWYLQKPGQSPKLLIHKVSNRFSGVPDRFSGSGSGTDFTLKISRVEAEDLGVYFCSQSTHVPPLTFGAGTKLELKRTVAAPSVFIFPPSDEQLKSGTASVVCLLNNFYPREAKVQWKVDNALQSGNSQESVTEQDSKDSTYSLSSTLTLSKADYEKHKVYACEVTHQGLSSPVTKSFNRGECAPTSTQLQLEHLLLDLQMILNGINNYKNPKLTRMLTFKFYMPKKATELKHLQCLEEELKPLEEVLNLAQSKNFHLRPRDLISNINVIVLELKGSETTFMCEYADETATIVEFLNRWITFCQSIISTLT
VH: EVQLLQSGPELEKPGASVMISCKASGSSFTGYNMNWVRQNIGKSLEWIGAIDPYYGGTSYNQKFKGRATLTVDKSSSTAYMHLKSLTSEDSAVYYCVSGMEYWGQGTSVTVSS
B2: 14.18-IL2-L containing SEQ ID NO: 6 (other)
light: IVMTQSPATLSVSPGERATLSCRSSQSLVHRNGNTYLHWYLQKPGQSPKLLIHKVSNRFSGVPDRFSGSGSGTDFTLKISRVEAEDLGVYFCSQSTHVPPLTFGAGTKLELKRTVAAPSVFIFPPSDEQLKSGTASVVCLLNNFYPREAKVQWKVDNALQSGNSQESVTEQDSKDSTYSLSSTLTLSKADYEKHKVYACEVTHQGLSSPVTKSFNRGECTQLQLEHLLLDLQMILNGINNYKNPKLTRMLTFKFYMPKKATELKHLQCLEEELKPLEEVLNLAQSKNFHLRPRDLISNINVIVLELKGSETTFMCEYADETATIVEFLNRWITFCQSIISTLT
VH: B1 VH

How the values were obtained:
Experiment in all cases: cell-based or functional assay
[1] = target: high affinity IL2 receptor on CTLL-2 mouse T cells (mouse) (UniProt P01590)
[2] = target: intermediate affinity IL2 receptor on TF-1β cells (UniProt P14784)
[3] = target: T1, intermediate affinity IL2 receptor on TF-1β cells (UniProt P14784 27-551; P31785 23-369)
T1 sequence (looked up) 1: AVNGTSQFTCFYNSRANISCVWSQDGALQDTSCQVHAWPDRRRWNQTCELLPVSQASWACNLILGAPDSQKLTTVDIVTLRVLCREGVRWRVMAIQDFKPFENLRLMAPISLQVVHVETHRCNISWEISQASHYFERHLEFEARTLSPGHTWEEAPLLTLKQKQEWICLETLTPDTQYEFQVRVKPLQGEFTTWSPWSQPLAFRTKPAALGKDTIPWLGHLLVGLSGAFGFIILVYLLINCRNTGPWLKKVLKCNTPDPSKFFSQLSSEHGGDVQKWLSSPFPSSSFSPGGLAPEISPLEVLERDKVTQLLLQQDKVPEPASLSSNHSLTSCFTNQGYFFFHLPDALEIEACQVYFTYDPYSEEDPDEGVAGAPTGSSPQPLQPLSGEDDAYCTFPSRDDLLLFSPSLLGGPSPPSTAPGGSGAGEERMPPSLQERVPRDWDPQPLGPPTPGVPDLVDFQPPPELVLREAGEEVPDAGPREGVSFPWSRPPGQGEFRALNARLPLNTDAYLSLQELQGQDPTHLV
T1 sequence (looked up) 2: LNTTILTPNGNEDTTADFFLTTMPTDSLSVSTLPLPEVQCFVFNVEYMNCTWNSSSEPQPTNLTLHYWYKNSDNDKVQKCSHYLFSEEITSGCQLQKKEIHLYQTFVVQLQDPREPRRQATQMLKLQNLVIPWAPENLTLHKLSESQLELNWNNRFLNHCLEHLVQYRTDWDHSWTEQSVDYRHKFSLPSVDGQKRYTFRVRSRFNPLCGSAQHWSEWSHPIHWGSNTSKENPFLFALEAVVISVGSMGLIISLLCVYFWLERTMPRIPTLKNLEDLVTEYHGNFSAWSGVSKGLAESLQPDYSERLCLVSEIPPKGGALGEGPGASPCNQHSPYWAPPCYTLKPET

[4] = target: T2, high affinity IL2 receptor on CTLL-2 mouse T cells (mouse, UniProt P01590 22-268; P16297 27-539; P34902 23-369)
T2 sequence (looked up) 1: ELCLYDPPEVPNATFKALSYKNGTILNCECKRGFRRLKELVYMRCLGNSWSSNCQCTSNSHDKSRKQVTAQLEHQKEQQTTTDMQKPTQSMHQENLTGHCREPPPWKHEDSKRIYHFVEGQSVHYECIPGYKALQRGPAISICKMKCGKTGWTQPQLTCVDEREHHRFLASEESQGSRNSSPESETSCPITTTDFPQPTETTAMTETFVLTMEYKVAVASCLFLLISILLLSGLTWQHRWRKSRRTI
T2 sequence (looked up) 2: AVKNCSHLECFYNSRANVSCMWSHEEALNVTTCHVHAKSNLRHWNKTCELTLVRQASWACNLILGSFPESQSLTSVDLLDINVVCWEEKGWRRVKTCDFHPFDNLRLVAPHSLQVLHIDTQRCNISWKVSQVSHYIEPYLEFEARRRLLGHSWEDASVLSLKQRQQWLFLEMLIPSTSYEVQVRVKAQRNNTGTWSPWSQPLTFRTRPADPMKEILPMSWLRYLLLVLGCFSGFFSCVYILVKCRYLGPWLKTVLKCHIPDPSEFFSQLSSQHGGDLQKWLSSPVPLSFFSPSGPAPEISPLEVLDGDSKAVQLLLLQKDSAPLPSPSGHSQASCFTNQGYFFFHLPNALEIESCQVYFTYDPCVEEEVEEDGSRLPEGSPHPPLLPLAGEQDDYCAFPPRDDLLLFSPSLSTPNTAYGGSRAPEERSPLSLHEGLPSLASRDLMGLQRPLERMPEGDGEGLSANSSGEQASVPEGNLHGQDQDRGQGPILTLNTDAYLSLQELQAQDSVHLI
T2 sequence (looked up) 3: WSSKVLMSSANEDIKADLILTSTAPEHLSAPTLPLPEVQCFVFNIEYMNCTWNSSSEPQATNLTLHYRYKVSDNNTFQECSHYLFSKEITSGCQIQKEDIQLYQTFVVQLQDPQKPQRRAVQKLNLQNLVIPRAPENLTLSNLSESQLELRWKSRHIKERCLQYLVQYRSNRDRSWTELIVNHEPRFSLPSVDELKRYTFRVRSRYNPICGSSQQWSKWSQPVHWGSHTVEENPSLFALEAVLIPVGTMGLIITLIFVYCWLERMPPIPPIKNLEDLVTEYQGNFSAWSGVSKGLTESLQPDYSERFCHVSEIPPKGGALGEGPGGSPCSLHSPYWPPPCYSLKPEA

Molecule | Relative Activity High aff/Inter Aff (high affinity part) [1] | Selectivity for High Affinity Receptor [1] | Relative Activity High aff/Inter Aff (intermediate affinity part) [2] | Relative Activity High aff/Inter Aff (intermediate affinity part) [3] | TF-1β (Int aff) ED50 [3] | Relative Activity High aff/Inter Aff (high affinity part) [4] | Selectivity for High Affinity Receptor [4]
ch14.18-IL2-H heavy chain fusion (H-fusion with a chimeric 14.18) | 1 | 1 | 1 |  |  |  | 
B1 |  |  |  | 0.01 | > 0.5 µg/mL | 1 | > 100
B2 |  |  |  | 0.01 | > 0.5 µg/mL | 1 | > 100
